Consider two molecules from patent US12251377B2, “Anticoagulant compositions and uses thereof” (University of Rochester, priority 2019, dated 2025).

Data set [1] deals with coagulation of human blood. The experiment in a line: Cardiopulmonary bypass circuit simulation (arterio-venous loop). It counts as biochemical. To be noted: whole duration of the bypass circuit experiment, 37° C. How it is done: (§1) In the examples below, studies were carried out to examine effects of dabigatran on coagulation of human blood. The studies were approved by the Institutional Review Board (University of Rochester RSRB, Rochester, NY) and informed consent was obtained from all subjects. Six healthy non-pregnant donors between 18-70 years old were recruited for the study. Subjects were excluded from the recent infections, disorders of immune system, hematological disorders including prior history of clotting issues, malignancies. Current medications and herbal supplements were recorded. Standard phlebotomy procedures performed by trained personal were used to collect no more than 250 ml of whole blood in two months. The collected blood was anticoagulated with 0.109 M Na citrate and tested within four hours. Dabigatran was purchased from CLEARSYNTH (Ontario, Canada). The study was initiated in three steps: Effect of high-dose Dabigatran on coagulation of human blood in-vitro; Evaluation of the anticoagulant effect of Dabigatran in the Chandler Loop System; and Anticoagulation effect of Dabigatran in the Cardiopulmonary bypass circuit simulation. […]

For data set [2] the following is noted: cited from earlier work.
For data set [3], the system named is coagulation of human blood. In words: Chandler Loop System, clot formation in circulating blood. It counts as biochemical. To be noted: Idarucizumab added after 2 hours of circulation; immediate clotting of the blood in the loop. How it is done: as §1
(§2) Methods: Dabigatran was initially dissolved in 0.1 M HCL, followed by diluting 1:1 with DMSO/H2O to prepare four stock solutions: […]. […] Blood clotting was monitored for 120 minutes. […]

The subject of data set [4] is coagulation of human blood. In words: Thromboelastography, TEG 5000 rapid TEG test, clotting/reactive time (R). It counts as biochemical. Particulars: human blood in vitro. How it is done: In the examples below, studies were carried out to examine effects of dabigatran on coagulation of human blood. The studies were approved by the Institutional Review Board (University of Rochester RSRB, Rochester, NY) and informed consent was obtained from all subjects. Six healthy non-pregnant donors between 18-70 years old were recruited for the study. Subjects were excluded from the recent infections, disorders of immune system, hematological disorders including prior history of clotting issues, malignancies. Current medications and herbal supplements were recorded. Standard phlebotomy procedures performed by trained personal were used to collect no more than 250 ml of whole blood in two months. […]
Methods: Dabigatran (CLEARSYNTH, Catalog No. CS-O-03403; CAS number 211914-51-1) was initially dissolved in 0.1M HCL to 16.6 mg/ml, followed by diluting to 240 μg/ml, using 50% DMSO. […] TEG 5000 (rapid TEG test) and ROTEM (ex-tem test) were used to measure anticoagulation and the corresponding reactive time (R) and coagulation time (CT) were recorded.
as §2
Each of the dabibatran-containing blood sample described above was examined for clotting time R measured by TEG in the manner described above.

Take `[H]/N=C(/N)c1ccc(NCc2nc3cc(C(=O)N(CCC(=O)O)c4ccccn4)ccc3n2C)cc1` [Dabigatran]: the “plasma levels of Dabigatran during the experimental procedure (Mass Spectrometry)” value in data set [1] is reported as “remain stable”. Also, the “normal concentrations found in patients” value in data set [2] is 180 ng/mL.

B1: Idarucizumab: anti-dabigatran antibody, reversal agent (antibody, chains of the INN, looked up, V domains shown)
VH: QVQLQESGPGLVKPSETLSLTCTVSGFSLTSYIVDWIRQPPGKGLEWIGVIWAGGSTGYNSALRSRVSITKDTSKNQFSLKLSSVTAADTAVYYCASAAYYSYYNYDGFAYWGQGTLVTVSS
VL: DVVMTQSPLSLPVTLGQPASISCKSSQSLLYTDGKTYLYWFLQRPGQSPRRLIYLVSKLDSGVPDRFSGSGSGTDFTLKISRVEAEDVGVYYCLQSTHFPHTFGGGTKVEIK
modifications: Fab
notes: anti-dabigatran antibody, reversal agent
For the molecule B1, the “reversal of the anticoagulation action of Dabigatran in the Chandler loop” value in data set [3] is given as “effectively reversed”. In data set [4] (125 μg/ml Idarucizumab), the “reversal of the anticoagulation effect of Dabigatran” value is on record as “successfully reversed”. In data set [4] (highest Dabigatran concentrations), the “Idarucizumab concentration required to reverse the highest concentrations of Dabigatran” value was 2-4 times normal plasma concentrations.
